Measurements reported in publication PMC4623440.

Biological target: human VEGF-A165 (human)

inhibition of VEGF-stimulated HUVEC growth (CellTiter-Glo): 2.1 nM
Substance: FcD2, monospecific fusion of hinge, Fc, linker and VEGFR1 D2 (from UniProt P17948 129-229) (Fc fusion)
